Experimental data: paper PMC9684507

Molecular target: T1, glucocorticoid receptor (GR) ((MCF-7 breast cancer cells)) (UniProt P04150)
T1 sequence: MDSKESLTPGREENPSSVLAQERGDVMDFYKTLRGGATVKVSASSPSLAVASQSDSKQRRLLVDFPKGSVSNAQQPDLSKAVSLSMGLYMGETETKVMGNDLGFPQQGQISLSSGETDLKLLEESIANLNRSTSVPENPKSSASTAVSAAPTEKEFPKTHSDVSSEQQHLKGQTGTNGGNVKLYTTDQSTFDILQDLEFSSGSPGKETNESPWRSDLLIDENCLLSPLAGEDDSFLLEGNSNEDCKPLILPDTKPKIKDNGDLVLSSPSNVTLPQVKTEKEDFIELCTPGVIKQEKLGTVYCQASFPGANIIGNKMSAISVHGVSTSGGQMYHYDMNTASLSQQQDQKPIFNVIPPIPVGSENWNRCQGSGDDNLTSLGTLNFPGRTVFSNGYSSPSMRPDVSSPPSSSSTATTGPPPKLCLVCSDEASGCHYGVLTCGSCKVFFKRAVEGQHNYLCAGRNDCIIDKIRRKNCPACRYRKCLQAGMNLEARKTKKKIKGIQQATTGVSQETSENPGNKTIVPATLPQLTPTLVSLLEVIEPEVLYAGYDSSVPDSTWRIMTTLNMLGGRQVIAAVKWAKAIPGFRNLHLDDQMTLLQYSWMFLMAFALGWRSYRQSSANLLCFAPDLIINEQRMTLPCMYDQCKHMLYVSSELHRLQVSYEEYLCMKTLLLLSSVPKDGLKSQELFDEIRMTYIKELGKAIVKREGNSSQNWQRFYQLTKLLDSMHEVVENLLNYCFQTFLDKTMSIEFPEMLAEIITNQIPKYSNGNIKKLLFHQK
Test: EMSA supershift
Conditions: LightShift Chemiluminescent EMSA Kit (Thermo), 6% polyacrylamide gel, antibody 1:250, additional 30 min, buffer, salt, pH and temperature not stated

Row | Sequence | binding signal (scale: fraction of G-probe supershift band intensity) | binding signal (fraction of G-probe band intensity) (dexamethasone-treated MCF-7 nuclear extract, anti-GR antibody, reference)
1 | TTCTGATCTTTGTTTTACTTTTCTTGGCTTCTG (double strand) [rs28714259 A (risk) probe] | < 0.4 | 
2 | TTCTGATCTTTGTTTTGCTTTTCTTGGCTTCTG (double strand) [rs28714259 G (major) probe] |  | 1
